Test results taken from US20100048468A1 (Amgen, published 2010).
Where two headings read alike, the source gives them in different places. Non-standard residues stand in square brackets, D forms with d. Primed or numbered codes have the meaning given here. No end group written: not given here. Aib′ = alpha aminobutyric acid (source's wording)

T1: mouse GLP-1 receptor (mouse, UniProt O35659 22-463)
T1 sequence (looked up): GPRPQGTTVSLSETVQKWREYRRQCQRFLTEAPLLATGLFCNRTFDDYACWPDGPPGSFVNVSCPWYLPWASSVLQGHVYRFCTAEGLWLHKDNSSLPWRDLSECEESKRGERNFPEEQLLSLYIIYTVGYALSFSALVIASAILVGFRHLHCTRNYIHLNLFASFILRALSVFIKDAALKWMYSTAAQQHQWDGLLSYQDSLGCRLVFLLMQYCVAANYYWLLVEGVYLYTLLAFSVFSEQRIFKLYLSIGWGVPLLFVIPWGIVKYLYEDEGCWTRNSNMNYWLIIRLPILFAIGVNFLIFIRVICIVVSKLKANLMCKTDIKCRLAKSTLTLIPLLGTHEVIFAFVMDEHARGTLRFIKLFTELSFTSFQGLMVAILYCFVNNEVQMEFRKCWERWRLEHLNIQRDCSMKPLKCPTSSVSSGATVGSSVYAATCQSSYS


What was measured:
human GLP-1 receptor [1] = target: T2, human GLP-1 receptor (human, UniProt P43220 24-463); assay: cell-based or functional assay
mouse GLP-1 receptor [2] = target: T1, mouse GLP-1 receptor; assay: cell-based or functional assay
human GLP-1 receptor [3] = target: T2, human GLP-1 receptor; assay: 125I-GLP-1 displacement, membranes of CHOK1 cells expressing human GLP-1 receptor
Procedure: (§1) Membrane Preparation. […] Cells were sedimented at 1500 rpm for 10 minutes. The resulting pellets were homogenized in 15 mls of ice cold sucrose buffer (25 mM Tris-HCl, 0.32 M Sucrose, 0.25 g/L, sodium azide, pH 7.4) with a motorized, glass fitted, Teflon homogenizer. The homogenate was centrifuged at 48,000×g at 4° C. for 10 minutes, resuspended in 25 ml assay buffer (50 mM Tris-HCl, 5 mM MgCl₂, 10 mg/ml protease-free BSA, 0.1 mg/ml STI, and 0.1 mg/ml Pefabloc, pH 7.4) with a Tissue-Tearor (Biospec Products), then centrifuged again at 48,000×g for 10 minutes. The pellets were homogenized for a third time in 15 ml assay buffer using the Tissue-Tearor and again centrifuged at 48,000×g for 10 minutes. The resulting pellet was resuspended in assay buffer at a wet weight concentration of 4 mg/ml.
(§2) Ligand Binding Assay. Binding assays were performed in 96-well U-bottom plates. […] The reaction was terminated by rapid filtration through Unfilter-96 GF/C glass fiber filter plates (FilterMate 196 Packard Harvester, PerkinElmer, Shelton, Conn.) pre-soaked in 0.5% polyethylenimine, followed by three washes with 300 μl of cold 50 mM Tris-HCl, pH 7.4. Bound radioactivity was determined using a TopCount microplate scintillation and luminescence counter (Packard Instrument Company, PerkinElmer, Shelton, Conn.). Nonlinear regression analyses of resulting concentration curves were performed using GraphPad Prism (GraphPad Software, Inc., San Diego, Calif.).

human GLP-1 receptor [4] = target: T2, human GLP-1 receptor; assay: cell-based or functional assay; remark: listed apart in the source
mouse GLP-1 receptor [5] = target: T1, mouse GLP-1 receptor; assay: cell-based or functional assay; remark: listed apart in the source
human GLP-1 receptor [6] = target: T2, human GLP-1 receptor; assay: 125I-GLP-1 displacement, membranes of CHOK1 cells expressing human GLP-1 receptor; remark: listed apart in the source
Procedure: as §1
as §2, with “Calif.). […]” for “Calif.).”

mouse GLP-1 receptor [7] = target: T1, mouse GLP-1 receptor; assay: cell-based or functional assay; remark: listed apart in the source

Row | Binder | EC50 human (human GLP-1 receptor [1]) | EC50 mouse (mouse GLP-1 receptor [2]) | IC50 (human GLP-1 receptor [3]) | EC50 human (human GLP-1 receptor [4]) | EC50 mouse (mouse GLP-1 receptor [5]) | IC50 (human GLP-1 receptor [6]) | EC50 mouse (mouse GLP-1 receptor [7])
1 | MNHAEGTFTSDVSSYLEGQAAKEFIAWLVKGR (ends and bridges not checked, Not pegylated) [MN-GLP1 (SEQ ID NO: 263)] | 0.3 nM | 2 nM | 50 nM |  |  |  | 
2 | MIHAEGTFTSDVSSYLEGQAAKEFIAWLVKGR (not fully specified; ends and bridges not checked, Not pegylated) [MI-GLP1 (SEQ ID NO: 260)] | 0.6 nM | 6 nM | 75 nM |  |  |  | 
3 | MEHAEGTFTSDVSSYLEGQAAKEFIAWLVKGR (Not pegylated) [ME-GLP1 (SEQ ID NO: 264)] | 1 nM | 4 nM | 95 nM |  |  |  | 
4 | AHAEGTFTSDVSSYLEGQAAKEFIAWLVKGR (Not pegylated) [A-GLP-1 (SEQ ID NO: 247)] | 0.2 nM | 0.8 nM | 38 nM |  |  |  | 
5 | GHAEGTFTSDVSSYLEGQAAKEFIAWLVKGR (not fully specified, Not pegylated) [G-GLP-1 (SEQ ID NO: 248)] | 1 nM | 3 nM | 80 nM |  |  |  | 
6 | THAEGTFTSDVSSYLEGQAAKEFIAWLVKGR (not fully specified; ends and bridges not checked, Not pegylated) [T-GLP-1 (SEQ ID NO: 251)] | 0.3 nM | 2 nM | 53 nM |  |  |  | 
7 | PHAEGTFTSDVSSYLEGQAAKEFIAWLVKGR (ends and bridges not checked, Not pegylated; also called P-CLP-1) [P-GLP-1 (SEQ ID NO: 249)] | 0.2 nM | 1 nM | 38 nM |  |  |  | 
8 | MHAEGTFTSDVSSYLEGQAAKEFIAWLVKGR (Not pegylated) [M-GLP1 (SEQ ID NO: 256)] | 0.086 nM | 0.5 nM |  |  |  |  | 
9 | VHAEGTFTSDVSSYLEGQAAKEFIAWLVKGR (ends and bridges not checked, Not pegylated) [V-GLP-1 (SEQ ID NO: 252)] | 0.2 nM | 1 nM | 32 nM |  |  |  | 
10 | SHAEGTFTSDVSSYLEGQAAKEFIAWLVKGR (ends and bridges not checked, Not pegylated; also called S-CLP-1) [S-GLP-1 (SEQ ID NO: 250)] | 0.4 nM | 2 nM | 53 nM |  |  |  | 
11 | HGEGTFTSDVSSYLE[Aib′]QAAKEFIAWLVKGRGC(mPEG‑maleimide 20 kDa)SG-NH2 [cgGLP-24 cgGLP-27, mgGLP-22, mgGLP-33 & mgGLP-27 (SEQ ID NO: 22 + 20k PEG)] |  |  |  | 0.1 nM | 0.84 nM | 47 nM | 
12 | HGEGTFTSDVSSYLE[Aib′]QAAKEFIAWLVKGRGC(mPEG‑maleimide 20 kDa)A-NH2 (also called cgGLP30) [mgGLP32 & mgGLP-20 (SEQ ID NO: 18 + 20k PEG)] |  |  |  | 0.13 nM | 0.84 nM | 56 nM | 
13 | HGEGTFTSDVSSYLE[Aib′]QAAKEFIAWLVKGRGC(mPEG‑maleimide 20 kDa)G-NH2 [mgGLP-16 (SEQ ID NO: 20 + 20k PEG)] |  |  |  | 0.2 nM | 1.6 nM | 50 nM | 
14 | HGEGTFTSDVSSYLEGC(PEG 20 kDa)AAKEFIAWLKNGGPSSGAPPPS [cgGLP-13 (SEQ ID NO: 8 + 20k PEG monomer)] |  |  |  |  |  |  | 3 nM
15 | HGEGTFTSDVSSYLE[Aib′]QAAKEFIAWLVKGRGC(mPEG‑maleimide 5 kDa)SG-NH2 (also called cgGLP-25) [cpGLP-25 (SEQ ID NO: 22 + 5k PEG)] |  |  |  | 0.039 nM | 0.9 nM | 15 nM | 
